The source of these data is patent US20140148503, “NUCLEIC ACID APTAMERS” (University of Iowa Research Foundation, published 2014).

By IC50 is commonly meant the point on the concentration scale where inhibition reaches its midpoint. Low values mean inhibition by little substance, high ones a need for much substance. The Kd is the concentration at which binding is half-saturated.

The target in data set [1] is T1, PSMA (prostate specific membrane antigen) (Homo sapiens, UniProt Q04609 Q04609:44-750). Nature of the data set: inhibition; NAALADase; 1 mM CoCl2, 37 C. The settings on record: tags: R&D Systems 4234-ZN-010; chain copies: 2. Here is the method: Refolding was accomplished by heating at 65° C. for 10 minutes, followed by cooling to 37° C. for 10 minutes. A volume of 120 μL of refolded RNA in binding buffer was added to an Eppendorf tube, was combined with 40 μL of 200 mM Tris buffer, pH 7.5, and 20 μL 10 mM CoCl₂ (final concentrations in the reaction 40 mM and 1 mM, respectively). Cobalt (II) chloride was reported to be a “stimulator of enzymatic activity” in the original NAALADase assay protocol (Xiao, Z., et al., (2000) Generation of a baculovirus recombinant prostate-specific membrane antigen and its use in the development of a novel protein biochip quantitative immunoassay. Protein Expr Purif, 19, 12-21). When this compound was omitted from the reaction, we observed increased non-specific RNA interactions. Two micrograms in 2 μL of recombinant human PSMA (4234-ZN-010) from R&D Systems (Minneapolis, Minn.) was diluted in 500 μL of 50 mM pH 7.5 Tris buffer. Ten microliters of the PSMA solution (40 ng PSMA) was added to the reaction mix, and the reaction was incubated for 5 minutes at 37° C. to promote RNA-PSMA interaction. For the experiment shown in FIG. 1A, recombinant, purified human PSMA was obtained courtesy of Dr. David Spencer (Baylor College of Medicine, Houston, Tex.). […]
T1 sequence (Q04609 44-750, one chain of several): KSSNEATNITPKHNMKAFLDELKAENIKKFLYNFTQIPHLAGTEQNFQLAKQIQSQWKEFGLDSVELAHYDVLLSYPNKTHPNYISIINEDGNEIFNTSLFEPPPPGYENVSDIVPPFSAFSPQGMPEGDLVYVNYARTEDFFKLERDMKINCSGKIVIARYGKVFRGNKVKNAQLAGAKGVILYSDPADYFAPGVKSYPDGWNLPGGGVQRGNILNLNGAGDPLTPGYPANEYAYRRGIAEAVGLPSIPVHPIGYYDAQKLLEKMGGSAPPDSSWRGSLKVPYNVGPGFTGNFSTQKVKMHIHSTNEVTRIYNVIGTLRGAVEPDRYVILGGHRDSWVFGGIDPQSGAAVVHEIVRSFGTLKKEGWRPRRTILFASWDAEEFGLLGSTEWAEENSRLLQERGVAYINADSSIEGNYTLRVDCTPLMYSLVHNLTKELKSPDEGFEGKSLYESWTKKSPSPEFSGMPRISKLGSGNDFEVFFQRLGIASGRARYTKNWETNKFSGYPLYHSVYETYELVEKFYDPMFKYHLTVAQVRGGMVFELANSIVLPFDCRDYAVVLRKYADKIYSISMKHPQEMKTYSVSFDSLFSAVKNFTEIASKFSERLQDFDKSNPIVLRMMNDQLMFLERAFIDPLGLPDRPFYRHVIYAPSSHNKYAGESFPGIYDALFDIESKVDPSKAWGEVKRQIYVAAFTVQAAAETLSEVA
AG 1-X8 formate resin (200-400 mesh) columns from Bio-Rad (731-6221) were used to quantitate the [³H]-glutamate reaction product. […]

The target of data set [2] is T1, PSMA (prostate specific membrane …). Nature of the data set: filter; 37 C. The settings on record: tags: R&D Systems 4234-ZN-010; chain copies: 2. The source says:
FIGS. 3A-3B. Binding of A9 and A9g to human PSMA. (A) A saturation filter binding assay was used to measure binding of A9 and A9g to recombinant human PSMA protein. […] The fraction bound was normalized to the Bₘₐₓ (maximal binding capacity) of A9. (B) Measurement of the binding affinity of A9g for recombinant human PSMA protein by surface plasmon resonance (SPR, BIACore). The data were fit to a 1:1 binding with mass transfer model. […] The on-rate (kₐ) was 1.15×10⁴ M⁻¹·S⁻¹ and the off-rate (kd) was 5.7×10⁻⁵ s⁻¹.
Filter binding assays were performed as previously described (Wong, I. and Lohman, T. M. (1993) A double-filter method for nitrocellulose-filter binding: application to protein-nucleic acid interactions. Prac Natl Acad Sci USA, 90, 5428-5432). Briefly, aptamers were 5′-end labeled with ³²P using PNK. RNA was incubated for 5 minutes with various concentrations of purified, recombinant human PSMA (4234-ZN-010) obtained from R&D Systems at 37° C. The reaction mixture was spotted onto a sandwich of nitrocellulose (Protran BA 83, 0.2 μm pore size, 10 402 488, Whatman), nylon (Zeta-Probe Blotting Membranes, 162-0153, Bio-Rad), and Whatman 3MM chromatography paper (3130-6189) assembled in a dot-blot apparatus. […] The ratio of bound:unbound RNA was calculated by exposing the filters to a storage phosphor screen and imaging with a phosphorimager.

The target is the same in data set [3]. Nature of the data set: inhibition; NAALADase of membrane extract. The settings on record: protein: extract; tags: membrane extract of PC-3 (PSMA+) cells stably expressing human PSMA; chain copies: 2.
Data set [4] shares this target. Nature of the data set: cell_activity; transwell migration. The settings on record: tags: PSMA-expressing cells, migration and invasion assays; chain copies: 2.
Data set [5] has as its target T2, BSA (bovine serum albumin) (UniProt P02769 P02769:25-607). Nature of the data set: SPR; no appreciable interaction; specificity control. The settings on record: label: 5'-biotin-spacer9-G. As to the method: (§1) Surface Plasmon Resonance (SPR) measurements were carried out using a BIACore 3000 device. 5′-biotinylated RNA was generated by transcription and gel purification as described above, except the transcription reactions were carried out in the presence of 3 mM biotin-G (Custom order from TriLink Biotechnologies, San Diego, Calif.: 5′-(Biotin) (Spacer 9) G-3′). The biotinylated RNA was immobilized on a streptavidin-coated Biacore chip (Sensor Chip SA, 13R-1003-98, General Electric Company) by injection in binding buffer at a concentration of 25 μg/mL (20 mM HEPES, pH 7.4, 150 mM NaCl, 2 mM CaCl₂). The RNA was refolded by heating to 65° C. followed by cooling to 37° C. prior to immobilization. To measure binding kinetics, fixed concentrations of purified protein were injected over the chip using the “KINJECT” function at a flow rate of 15 μL/min. After binding, the chip was regenerated by injecting 50 mM NaOH with the “QUICKINJECT” function. […]
(§2) Binding specificity of the A9g aptamer for PSMA was determined using SPR/BIACore (FIG. 4D; left panel). Binding specificity was assessed by comparing the kₒₙ, and koff rates of A9g for recombinant PSMA protein (target) to the Kₒₙ, and koff rates of A9g for non-target proteins (BSA and HER2). […] No appreciable interaction between A9g and the non-target proteins (BSA and HER2) was measured (FIG. 4D; left panel). […]
Background: SPR reads the build-up and loss of mass on a sensor chip optically.

Data set [6] deals with T1, PSMA (prostate specific membrane …). Nature of the data set: SPR; 1:1 with mass transfer; range 5-30 nM in triplicate; 20 mM HEPES pH 7.4, 150 mM NaCl, 2 mM CaCl2. The settings on record: tags: R&D Systems 4234-ZN-010; chain copies: 2; label: 5'-biotin-spacer9-G. Here is the method:
The data were fit to a 1:1 binding with mass transfer model. […] The on-rate (kₐ) was 1.15×10⁴ M⁻¹·S⁻¹ and the off-rate (kd) was 5.7×10⁻⁵ s⁻¹.
Surface Plasmon Resonance (SPR) measurements were carried out using a BIACore 3000 device. 5′-biotinylated RNA was generated by transcription and gel purification as described above, except the transcription reactions were carried out in the presence of 3 mM biotin-G (Custom order from TriLink Biotechnologies, San Diego, Calif.: 5′-(Biotin) (Spacer 9) G-3′). The biotinylated RNA was immobilized on a streptavidin-coated Biacore chip (Sensor Chip SA, 13R-1003-98, General Electric Company) by injection in binding buffer at a concentration of 25 μg/mL (20 mM HEPES, pH 7.4, 150 mM NaCl, 2 mM CaCl₂). The RNA was refolded by heating to 65° C. followed by cooling to 37° C. prior to immobilization. […]
The NAALADase activity assay provides an indirect measurement of the interaction of the PSMA aptamers with PSMA. […] As determined by the filter binding assay, the A9g aptamer retains the same binding profile as the full-length A9 (FIG. 3A). […] After the injection was halted, the rate of dissociation (koff) was measured. By repeating these measurements at various analyte (PSMA) concentrations, an accurate estimation of binding was determined (KD=koff/Kₒₙ).

Data set [7] shares this target. Nature of the data set: filter; Bmax severely diminished. The settings on record: tags: R&D Systems 4234-ZN-010; chain copies: 2. The source says: FIGS. 4A-4D. Characterization of A9g binding to PSMA. (A) Secondary structural predictions of truncated A9 aptamers generated using the RNAStructure 4.6 algorithm. Base changes are denoted by an asterisk (*). Base changes were introduced in an attempt to either retain the predicted secondary structure (A9g.1 and A9g.2) or disrupt various secondary structural elements (A9g.3-A9g.6) of A9g. Two secondary structure predictions were given for the A9g.4 sequence, denoted by A9g.4a and A9g.4b. (B) Effect of A9g aptamer derivatives (A9g.1 through A9g.6) on PSMA NAALADase inhibitor activity. NAALADase activity was measured and normalized as in FIG. 1. (C) Saturation filter binding assay of A9g aptamer and A9g aptamer derivatives (A9g.3-A9g.6). (D) Binding of A9g to recombinant human PSMA, recombinant rat HER2 (rHER2), and BSA using BIACore (left panel). Binding of A9g.6 to recombinant human PSMA, recombinant rat HER2 (rHER2), and BSA using BIACore (right panel).
Filter binding assays were performed as previously described (Wong, I. and Lohman, T. M. (1993) A double-filter method for nitrocellulose-filter binding: application to protein-nucleic acid interactions. Prac Natl Acad Sci USA, 90, 5428-5432). Briefly, aptamers were 5′-end labeled with ³²P using PNK. RNA was incubated for 5 minutes with various concentrations of purified, recombinant human PSMA (4234-ZN-010) obtained from R&D Systems at 37° C. The reaction mixture was spotted onto a sandwich of nitrocellulose (Protran BA 83, 0.2 μm pore size, 10 402 488, Whatman), nylon (Zeta-Probe Blotting Membranes, 162-0153, Bio-Rad), and Whatman 3MM chromatography paper (3130-6189) assembled in a dot-blot apparatus. Bound RNA was captured on the nitrocellulose filter, while unbound RNA was captured on the nylon filter. The ratio of bound:unbound RNA was calculated by exposing the filters to a storage phosphor screen and imaging with a phosphorimager.

For data set [8] the target is unchanged. Nature of the data set: 32P-labeled RNA on cells, on ice. The settings on record: tags: 22Rv1 (1.7) prostate cancer cells; chain copies: 2. Here is the method: One day prior to the binding assay, cells were plated in a 24-well plate at a density of approximately 100,000 cells per well. All subsequent procedures were performed on ice to prevent aptamer internalization. Prior to binding, each well was washed twice with 1 ml of ice-cold Dulbecco's phosphate-buffered saline in the absence of divalent cations (DPBS −/−) to remove growth media. Aptamers were 5′ end-labeled with ³²P using PNK from New England Biolabs as previously described (McNamara, J. O., et al., (2008) Multivalent 4-1BB binding aptamers costimulate CD8+ T cells and inhibit tumor growth in mice. J Clin Invest, 118, 376-386). The concentration of ³²P-radiolabeled aptamer was measured with UV-visible absorption spectroscopy, and serial dilutions ranging from 1000 nM to 30 nM were performed. To measure non-specific binding, serial dilutions were also made containing a high fixed concentration of non-radiolabeled A9g aptamer, at 10 μM. […] Bound RNA was collected by washing with 0.5 ml of 0.5 N NaOH which was added to 3 ml of scintillation fluid, and activity was measured. For each dilution, specific binding was calculated by subtracting the activity of the sample with a high concentration of non-radiolabeled (“cold”) aptamer added (i.e., non-specific binding) from the sample without cold aptamer added (i.e., total binding). […]

Data set [9] has the same target. Nature of the data set: cell_activity; transwell migration; invasion IC50 75 nM (FIG. 15C). The settings on record: tags: PSMA-expressing cells, migration and invasion assays; chain copies: 2.
Data set [10] has the same target. Nature of the data set: SPR; lack of binding. The settings on record: tags: R&D Systems 4234-ZN-010; chain copies: 2; label: 5'-biotin-spacer9-G. As to the method:
as §1, §2

Data set [11] concerns the target T2, BSA (bovine serum albumin). Nature of the data set: SPR; no measurable binding. The settings on record: label: 5'-biotin-spacer9-G. As to the method: as §1, §2

T2 sequence (P02769 25-607, one chain of several): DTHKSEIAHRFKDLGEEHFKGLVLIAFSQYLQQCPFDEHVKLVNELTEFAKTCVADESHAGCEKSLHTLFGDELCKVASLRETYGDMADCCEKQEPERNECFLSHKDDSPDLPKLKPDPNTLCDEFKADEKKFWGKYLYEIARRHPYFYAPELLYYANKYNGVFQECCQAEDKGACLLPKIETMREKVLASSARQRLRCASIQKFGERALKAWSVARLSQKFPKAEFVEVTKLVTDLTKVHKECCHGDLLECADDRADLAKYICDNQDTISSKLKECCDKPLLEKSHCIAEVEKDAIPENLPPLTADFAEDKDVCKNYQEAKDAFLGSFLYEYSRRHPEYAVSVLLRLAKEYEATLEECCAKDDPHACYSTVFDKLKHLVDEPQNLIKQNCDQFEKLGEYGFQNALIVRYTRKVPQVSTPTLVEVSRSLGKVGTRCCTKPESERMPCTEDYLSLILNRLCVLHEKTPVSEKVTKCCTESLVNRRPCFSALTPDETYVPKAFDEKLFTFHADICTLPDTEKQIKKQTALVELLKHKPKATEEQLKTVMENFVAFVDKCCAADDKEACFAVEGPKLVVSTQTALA

B1: A9 (ssRNA)
RNA: GGGAGGACGAUGCGGACCGAAAAAGACCUGACUUCUAUACUAAGUCUACGUUCCCAGACGACUCGCCCGA
modifications: 2'-F pyrimidines
B1: the IC50 in data set [1] was around 0.01 µM; in [3], 0.267 µM; in data set [4], 0.081 µM. In [2], this molecule returned a Kd of 0.11 µM.

As to GGGACCGAAAAAGACCUGACUUCUAUACUAAGUCUACGUUCCC (ssRNA, 2'-F pyrimidines) [A9g 5'-biotin], in data set [5], the binding result is reported as “no binding”. The Kd in [6] is 0.005 µM.

With GGGACCGAAAAAGACCUGACUUCUAUACUAGGUCUACGUUCCC (ssRNA, 2'-F pyrimidines) [A9g.5], the binding result in [7] is “no binding”.

Turning to GGGACCGAAAAAGACCUGACUUCUAUACUAAGUCUACGUUCCC (ssRNA, 2'-F pyrimidines) [A9g], the IC50 in data set [1] is around 0.01 µM; in data set [9] it was 0.018 µM; in [3], 0.29 µM. Besides, the binding signal in [8] is ~2 fold binding capacity vs PSMA-negative PC-3. The molecule also displayed a Kd in data set [2] of 0.13 µM.

For the molecule GGGACCGAAAAAGACCUGGCUUCUAUACUAAGUCUACGUUCCC (ssRNA, 2'-F pyrimidines) [A9g.6 5'-biotin], the binding result in data set [10] and in [11] was “no binding” in each case.

GGGACCGAAAAAGACCUGGCUUCUAUACUAAGUCUACGUUCCC (ssRNA, 2'-F pyrimidines) [A9g.6]: the binding result in data set [7] was “no binding”.

Regarding GGGACCGAAAAAGACCUGACUUCUAUACUAAGUCUACGGUCCC (ssRNA, 2'-F pyrimidines) [A9g.3 (U39G)], in [7], the binding result is given as “no binding”.
